In assay [1] the target is CD3 receptor on T cells (human PBMCs) (human (endogenous in PBMCs)) (UniProt P07766).
For assay [2] the target is unchanged. This is another data set of the same source.
For assay [3] the target is unchanged. This is another data set of the same source.

Chain of UniProt P07766 (P07766 23-207): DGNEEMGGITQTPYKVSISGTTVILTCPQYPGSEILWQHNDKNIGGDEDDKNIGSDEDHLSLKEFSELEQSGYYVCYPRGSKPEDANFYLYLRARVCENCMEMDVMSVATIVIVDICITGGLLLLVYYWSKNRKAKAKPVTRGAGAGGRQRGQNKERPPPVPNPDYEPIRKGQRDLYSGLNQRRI

Take “SadP-scFv UCHT1 lectibody (from UniProt G5DSS1)”: in assay [1], the specific lysis of Gb3+ Ramos cells by PBMCs (E:T 5:1), bioluminescence-based cytotoxicity assay, 0.2–10 nM lectibody, 7 to 48 hours; highest at 10 nM and 48 hours was found to be 65%. The substance also returned a fold increase of CD69 on CD3+ T cells (PBMCs co-cultured with Gb3+ Ramos cells), 5 or 10 nM lectibody, 18 and 24 hours; highest at 10 nM and 24 hours in assay [2] of 5 to 8 fold. The fold increase of CD71 on CD3+ T cells (PBMCs co-cultured with Gb3+ Ramos cells), 5 or 10 nM lectibody, 24 and 48 hours; highest at 10 nM and 48 hours in assay [3] amounted to 25 fold.
